In assay [1] the target is T1, IGFBP-1 (human, UniProt P08833 26-259).
T1 construct: Biotinylated in the ELISA assays; also called rhIGFBP-1
T1 sequence (looked up): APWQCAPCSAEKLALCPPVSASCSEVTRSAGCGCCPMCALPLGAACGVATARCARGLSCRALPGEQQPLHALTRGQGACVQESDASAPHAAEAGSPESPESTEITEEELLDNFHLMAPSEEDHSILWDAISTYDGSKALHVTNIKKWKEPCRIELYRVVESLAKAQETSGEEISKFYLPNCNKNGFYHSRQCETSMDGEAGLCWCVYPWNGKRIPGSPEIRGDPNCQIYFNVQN
As to the kind of experiment: biotinylated-IGFBP-1 ELISA: peptide inhibits IGFBP-1 binding to IGF-I; ratio to bp1-01 (wt).

Assay [2] concerns the target T2, IGFBP-3 (human, UniProt P17936 28-291).
T2 construct: also called rhIGFBP-3
As to the kind of experiment: BIAcore competition: peptide inhibits IGFBP-3 binding to IGF-I; ratio to bp3-01-ox.

Assay [3] has as its target T2, IGFBP-3. In words: BIAcore competition: peptide inhibits IGFBP-3 binding to immobilized IGF-I.
The target of assay [4] is T1, IGFBP-1. In words: BIAcore competition: peptide inhibits IGFBP-1 binding to IGF-II; ratio to bp1-01 (wt).
The target in assay [5] is T1, IGFBP-1. In words: BIAcore competition: peptide inhibits IGFBP-1 binding to IGF-I; ratio to bp1-01 (wt).
Assay [6] deals with T1, IGFBP-1. As to the kind of experiment: ELISA plate assay: peptide inhibits IGFBP-1 binding to IGF-I; ratio to bp1-01 (wt).

The text below walks through data of patent US6949349.

Positions of bridges follow the written chain, without caps; N, C: chain ends. Non-standard residues stand in square brackets, D forms with d. No end group written: not given here. Aib = CC(C)(N)C(=O)O

T2 sequence (P17936 28-291 limits assumed): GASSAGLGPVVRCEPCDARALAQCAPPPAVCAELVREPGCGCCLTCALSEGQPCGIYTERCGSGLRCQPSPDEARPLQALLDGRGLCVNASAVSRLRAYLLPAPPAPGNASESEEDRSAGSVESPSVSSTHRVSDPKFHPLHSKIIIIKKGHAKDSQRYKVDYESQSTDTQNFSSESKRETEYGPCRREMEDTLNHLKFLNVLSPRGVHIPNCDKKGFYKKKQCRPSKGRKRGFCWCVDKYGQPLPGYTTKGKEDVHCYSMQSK

B1: bp1-01 L6a (peptide)
peptide: CRAGP[dA]QWLCEKYFG
modifications: disulfide 1-10
notes: Non-natural variant of bp1-01 (a = D-alanine)
On to B1, for which the “IC50 (mut)/IC50 (wt)” value with IGFBP-1 [1] is 400 ratio.

B2: bp3-24 (SEQ ID NO:107) (peptide)
peptide: WPVAEWYLCN
As for B2, the “IC50 (mut)/IC50 (wt)” value in the assay with IGFBP-3 [2] is over 500 ratio.

B3: bp1-01 K12aib (peptide)
peptide: CRAGPLQWLCE[Aib]YFG
modifications: disulfide 1-10
notes: Non-natural variant of bp1-01; X stands for aib
Turning to B3, in the assay with IGFBP-1 [1], the “IC50 (mut)/IC50 (wt)” value amounted to 2 ratio.

B4: bp1-01 G4a (peptide)
peptide: CRA[dA]PLQWLCEKYFG
modifications: disulfide 1-10
notes: as for B1
As to B4, the “IC50 (mut)/IC50 (wt)” value with IGFBP-1 [1] was 0.6 ratio.

B5: bp1-01 E11aib (peptide)
peptide: CRAGPLQWLC[Aib]KYFG
modifications: disulfide 1-10
notes: as for B3
With B5, the “IC50 (mut)/IC50 (wt)” value with IGFBP-1 [1] came out at 1 ratio.

B6: bp1-01 Q7 aib (peptide)
peptide: CRAGPL[Aib]WLCEKYFG
modifications: disulfide 1-10
notes: as for B3
For B6, the “IC50 (mut)/IC50 (wt)” value with IGFBP-1 [1] worked out at 1.6 ratio.

B7: bp3-28 (peptide)
peptide: EEVCWPVAEWYLCN
notes: bp3-01-ox variant
With B7, in the assay with IGFBP-3 [3], the half-maximal inhibitory concentration (IC50) worked out at 5.4 µM. Further, in the assay with IGFBP-3 [2], the “IC50 (mut)/IC50 (wt)” value was determined as 2.7 ratio.

B8: bp1-01 W8aib (peptide)
peptide: CRAGPLQ[Aib]LCEKYFG
modifications: disulfide 1-10
notes: as for B3
For the molecule B8, the “IC50 (mut)/IC50 (wt)” value in the assay with IGFBP-1 [1] was 24 ratio.

B9: bp1-01 R2a (peptide)
peptide: C[dA]AGPLQWLCEKYFG
modifications: disulfide 1-10
notes: as for B1
In the case of B9, the “IC50 (mut)/IC50 (wt)” value with IGFBP-1 [1] was 50 ratio.

B10: bp1-01 E11A (peptide)
peptide: CRAGPLQWLCAKYFG
notes: Ala-scan variant of bp1-01
Turning to B10, the “IC50 (mut)/IC50 (wt)” value in the assay with IGFBP-1 [4] was 2.4 ratio; with IGFBP-1 [5], 2.9 ratio.

B11: bp1-01 Q7A (peptide)
peptide: CRAGPLAWLCEKYFG
notes: Ala-scan variant of bp1-01
For B11, the results for the “IC50 (mut)/IC50 (wt)” value with IGFBP-1 [4] and in the assay with IGFBP-1 [5] were 0.6 ratio and 0.7 ratio, respectively.

B12: bp1-01 L6A (peptide)
peptide: CRAGPAQWLCEKYFG
notes: Ala-scan variant of bp1-01
Turning to B12, the “IC50 (mut)/IC50 (wt)” value in the assay with IGFBP-1 [4] was 34.7 ratio; with IGFBP-1 [5] it was 30.3 ratio.

B13: bp1-01 F14A (peptide)
peptide: CRAGPLQWLCEKYAG
notes: Ala-scan variant of bp1-01
On to B13, for which the entries for the “IC50 (mut)/IC50 (wt)” value in the assay with IGFBP-1 [4] and with IGFBP-1 [5] were 5.8 ratio and 6.2 ratio, respectively.

B14: bp1-01 R2A (peptide)
peptide: CAAGPLQWLCEKYFG
modifications: disulfide 1-10 (inferred)
notes: Ala-scan variant of bp1-01; termini and disulfide not restated
As for B14, the “IC50 (mut)/IC50 (wt)” value with IGFBP-1 [4] and with IGFBP-1 [5] was 0.9 ratio each time.

B15: bp1-01 W8A (peptide)
peptide: CRAGPLQALCEKYFG
notes: Ala-scan variant of bp1-01
For B15, the “IC50 (mut)/IC50 (wt)” value with IGFBP-1 [4] was 6.4 ratio; with IGFBP-1 [5] it was 7.4 ratio.

B16: bp1-01 K12A (peptide)
peptide: CRAGPLQWLCEAYFG
notes: Ala-scan variant of bp1-01
Consider B16, for which the results for the “IC50 (mut)/IC50 (wt)” value in the assay with IGFBP-1 [4] and with IGFBP-1 [5] were 5.3 ratio and 7.9 ratio, respectively.

B17: bp1-01 Y13A (peptide)
peptide: CRAGPLQWLCEKAFG
notes: Ala-scan variant of bp1-01
With B17, the “IC50 (mut)/IC50 (wt)” value in the assay with IGFBP-1 [4] amounted to 14.6 ratio; with IGFBP-1 [5], 12.5 ratio.

B18: bp1-01 L9A (peptide)
peptide: CRAGPLQWACEKYFG
notes: Ala-scan variant of bp1-01
For the molecule B18, the “IC50 (mut)/IC50 (wt)” value is 29.7 ratio with IGFBP-1 [4] and 33.2 ratio with IGFBP-1 [5].

B19: bp1-01 Y13aib (peptide)
peptide: CRAGPLQWLCEK[Aib]FG
modifications: disulfide 1-10
notes: as for B3
Take B19: in the assay with IGFBP-1 [1], the “IC50 (mut)/IC50 (wt)” value amounted to 7.1 ratio.

B20: bp3-39 (peptide)
peptide: SEEVCWPVAEWYLCN-NH2
modifications: disulfide 5-14 (inferred)
As to B20, the “IC50 (mut)/IC50 (wt)” value with IGFBP-3 [2] is 0.33 ratio.

B21: bp1-02 (peptide)
peptide: SEVGCRAGPLQWLCEKYFG-NH2
modifications: disulfide 5-14; N-terminus assumed
SMILES: CC(C)C[C@@H]1NC(=O)[C@H](Cc2c[nH]c3ccccc23)NC(=O)[C@H](CCC(N)=O)NC(=O)[C@H](CC(C)C)NC(=O)[C@@H]2CCCN2C(=O)CNC(=O)[C@H](C)NC(=O)[C@H](CCCNC(=N)N)NC(=O)[C@@H](NC(=O)CNC(=O)[C@@H](NC(=O)[C@H](CCC(=O)O)NC(=O)[C@@H](N)CO)C(C)C)CSSC[C@@H](C(=O)N[C@@H](CCC(=O)O)C(=O)N[C@@H](CCCCN)C(=O)N[C@@H](Cc2ccc(O)cc2)C(=O)N[C@@H](Cc2ccccc2)C(=O)NCC(N)=O)NC1=O
notes: 19-mer variant of bp1-01
Consider B21, for which the “IC50 (mut)/IC50 (wt)” value with IGFBP-1 [6] was 0.37 ratio.

B22: bp3-41 (peptide)
peptide: GPETCWPVAEWYLCN
notes: bp3-01-ox variant
In the case of B22, the concentration for half-maximal inhibition (IC50) in the assay with IGFBP-3 [3] is 4 µM. The “IC50 (mut)/IC50 (wt)” value with IGFBP-3 [2] was 2 ratio.

B23: bp1-15 (peptide)
peptide: CAAGPLQWLCEKYF
notes: g8 bp1-01 selectant
B23: the “IC50 (mut)/IC50 (wt)” value with IGFBP-1 [6] was 0.68 ratio.

B24: bp1029 (peptide)
peptide: CREGPLQWLCERFF
notes: g8 bp1-01 selectant
Take B24: in the assay with IGFBP-1 [6], the “IC50 (mut)/IC50 (wt)” value stood at 1.7 ratio.

B25: bp68 (peptide)
peptide: CRAGPLQWLCEKFF
notes: g8 bp1-01 selectant
With B25, the “IC50 (mut)/IC50 (wt)” value in the assay with IGFBP-1 [6] worked out at 0.39 ratio.

B26: bp1028 (peptide)
peptide: CRAGPLQWLCERFF
notes: g8 bp1-01 selectant
As for B26, the “IC50 (mut)/IC50 (wt)” value with IGFBP-1 [6] was found to be 4.6 ratio.

B27: bp67 (peptide)
peptide: CRAGPLQWLCERYF
notes: g8 bp1-01 selectant
Turning to B27, in the assay with IGFBP-1 [6], the “IC50 (mut)/IC50 (wt)” value came to 0.34 ratio.

B28: bp3-40 (peptide)
peptide: Ac-SEEVCWPVAEWYLCN-NH2
modifications: disulfide 5-14 (inferred)
As for B28, the “IC50 (mut)/IC50 (wt)” value in the assay with IGFBP-3 [2] came to 0.33 ratio.

B29: bp1-01 A3a (peptide)
chain: CR[dA]GPLQWLCEKYFG
modifications: disulfide 1-10 (inferred)
With B29, the “IC50 (mut)/IC50 (wt)” value with IGFBP-1 [1] came out at 34 ratio.

B30: bp1027 (peptide)
peptide: CKAGPLLWLCERFF
notes: g8 bp1-01 selectant
In the case of B30, in the assay with IGFBP-1 [6], the “IC50 (mut)/IC50 (wt)” value is 8.8 ratio.

B31: bp1030 (peptide)
peptide: CKEGPLLWLCERFF
notes: g8 bp1-01 selectant
On to B31, for which the “IC50 (mut)/IC50 (wt)” value with IGFBP-1 [6] came to 4.3 ratio.

B32: bp1-01 L9aib (peptide)
peptide: CRAGPLQW[Aib]CEKYFG
modifications: disulfide 1-10
notes: as for B3
For B32, in the assay with IGFBP-1 [1], the “IC50 (mut)/IC50 (wt)” value was 400 ratio.

B33: bp3-30 (peptide)
peptide: ASEEVCWPVAEWYLCN
notes: bp3-01-ox variant
Take B33: the IC50 in the assay with IGFBP-3 [3] was 5.6 µM. Also, the “IC50 (mut)/IC50 (wt)” value with IGFBP-3 [2] was 2.8 ratio.

B34: 4d3.3 (peptide)
peptide: ASEEVCWPVAEWYLCNMWGR
In turn, B34 returned an IC50 in the assay with IGFBP-3 [3] of 5.6 µM. For the same molecule, in the assay with IGFBP-3 [2], the “IC50 (mut)/IC50 (wt)” value worked out at 2.8 ratio.

B35: bp3-15 (peptide)
peptide: SEEVCWPVAEWYLCN
notes: also called BP15
In the assay with IGFBP-3 [3], B35 yielded a half-inhibitory concentration (IC50) of 0.72 µM. For the same molecule, in the assay with IGFBP-3 [2], the “IC50 (mut)/IC50 (wt)” value was 0.36 ratio.

B36: bp1-01 F14aib (peptide)
peptide: CRAGPLQWLCEKY[Aib]G
modifications: disulfide 1-10
notes: as for B3
Consider B36, for which the “IC50 (mut)/IC50 (wt)” value with IGFBP-1 [1] was found to be 3 ratio.
